Earlier results as cited in patent US6191103A, “Methods for enhancing thrombolysis in a mammal” (priority 1997, dated 2001).

Settings: in vivo

**Q.** Which plasma half-life does the source give for “tPA: tissue-type plasminogen activator, fibrinolytic agent” here?
**A.** around 5 minutes
